Data on five molecules can be found in patent US20260250352A1 (ALPINE IMMUNE SCIENCES, published 2026).

Several values for one entry are separate records, joined by “and”; a condition that tells them apart may be missing. Equal entries are not always repeated. Where two headings read alike, the source gives them in different places. Some results are limits rather than exact numbers.

In one assay the target is BAFF 60-mer (human, UniProt Q9Y275 134-285, limits assumed). Kind of assay: cell-based or functional assay.
Assay [1] concerns the target single chain BAFF-APRIL-APRIL heterotrimer (BAA) (human, UniProt Q9Y275 140-285; O75888 111-250; O75888 111-250, limits assumed). Briefly: cell-based or functional assay.
For assay [2], the target named is single chain APRIL-BAFF-BAFF heterotrimer (ABB) (human, UniProt O75888 111-250; Q9Y275 140-285; Q9Y275 140-285, limits assumed). Kind of assay: cell-based or functional assay.
Assay [3] concerns the target single chain BAFF homotrimer (BAFF-BAFF-BAFF) (human, UniProt Q9Y275 140-285, limits assumed). Briefly: cell-based or functional assay.
Assay [4] has as its target T1, recombinant human BAFF (human, UniProt Q9Y275 134-285). Kind of assay: cell-based or functional assay.
The target in assay [5] is T2, recombinant human APRIL (human, UniProt O75888 105-250, limits assumed).
T2 sequence (looked up): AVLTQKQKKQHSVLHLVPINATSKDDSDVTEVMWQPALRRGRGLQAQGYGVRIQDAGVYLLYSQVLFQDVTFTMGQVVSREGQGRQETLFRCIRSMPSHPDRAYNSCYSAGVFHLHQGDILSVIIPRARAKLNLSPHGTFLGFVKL
Briefly: cell-based or functional assay.

Assay [6] addresses T1, recombinant human BAFF. Briefly: SPR. Background: Surface plasmon resonance follows binding to a sensor surface in real time, without labels.
Assay [7] concerns the target T1, recombinant human BAFF. Briefly: cell-based or functional assay. This is another data set of the same source.
For assay [8], the target named is T3, recombinant mouse BAFF (mouse, UniProt Q9WU72 127-309). Briefly: cell-based or functional assay.
T3 sequence (Q9WU72 127-309 limits assumed): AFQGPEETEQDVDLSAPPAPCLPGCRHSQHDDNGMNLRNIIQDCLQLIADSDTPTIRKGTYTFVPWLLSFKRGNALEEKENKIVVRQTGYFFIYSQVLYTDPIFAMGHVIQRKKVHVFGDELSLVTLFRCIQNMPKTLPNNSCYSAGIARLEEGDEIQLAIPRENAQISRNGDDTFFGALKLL
The target in assay [9] is T2, recombinant human APRIL. Briefly: cell-based or functional assay. The source holds these as a separate data set.
The target in assay [10] is T4, recombinant mouse APRIL (mouse, UniProt Q9D777 96-241, limits assumed).
T4 sequence (looked up): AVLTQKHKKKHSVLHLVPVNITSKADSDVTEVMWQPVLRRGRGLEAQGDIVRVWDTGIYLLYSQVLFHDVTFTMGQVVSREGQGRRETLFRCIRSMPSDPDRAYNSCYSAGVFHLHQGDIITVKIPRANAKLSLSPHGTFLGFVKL
Kind of assay: cell-based or functional assay.

Assay [11] addresses T1, recombinant human BAFF. Briefly: cell-based or functional assay. This is another data set of the same source.
Assay [12] addresses T1, recombinant human BAFF. Briefly: cell-based or functional assay. This is another data set of the same source.
Assay [13] deals with T2, recombinant human APRIL. Briefly: cell-based or functional assay. This is another data set of the same source.
The target of assay [14] is T1, recombinant human BAFF. Kind of assay: cell-based or functional assay. This is another data set of the same source.
Assay [15] concerns the target T2, recombinant human APRIL. Kind of assay: cell-based or functional assay. The source holds these as a separate data set.
Assay [16] concerns the target T1, recombinant human BAFF. Briefly: cell-based or functional assay. This is another data set of the same source.
Assay [17] deals with T2, recombinant human APRIL. Kind of assay: SPR, apparent (ka app); apparent (ka app).
In assay [18] the target is T1, recombinant human BAFF. Kind of assay: cell-based or functional assay. The source holds these as a separate data set.
For assay [19], the target named is T2, recombinant human APRIL. Kind of assay: cell-based or functional assay. This is another data set of the same source.
Assay [20] has as its target T1, recombinant human BAFF. Briefly: cell-based or functional assay. The source holds these as a separate data set.
Assay [21] has as its target T3, recombinant mouse BAFF. Briefly: cell-based or functional assay. This is another data set of the same source.
The next assay has as its target rat BAFF (rat). Kind of assay: cell-based or functional assay.
A further assay concerns the target cynomolgus monkey APRIL (cynomolgus monkey). Kind of assay: cell-based or functional assay.
The target in a further assay is rat APRIL (rat). Briefly: cell-based or functional assay.
For assay [22], the target named is T2, recombinant human APRIL. Briefly: cell-based or functional assay. The source holds these as a separate data set.
For a further assay, the target named is cynomolgus monkey BAFF (cynomolgus monkey, UniProt A0A2K5V2X4 134-285). Briefly: cell-based or functional assay.
In assay [23] the target is T4, recombinant mouse APRIL. Briefly: cell-based or functional assay. The source holds these as a separate data set.
Assay [24] addresses T2, recombinant human APRIL. Briefly: cell-based or functional assay. The source holds these as a separate data set.
The target in assay [25] is T2, recombinant human APRIL. Kind of assay: SPR, apparent (KD app).
Assay [26] concerns the target T1, recombinant human BAFF. Briefly: cell-based or functional assay. The source holds these as a separate data set.
Assay [27] deals with T2, recombinant human APRIL. Kind of assay: SPR, apparent (kd app).
Assay [28] deals with T1, recombinant human BAFF. Briefly: SPR. The source holds these as a separate data set.
The target in assay [29] is T3, recombinant mouse BAFF. Briefly: cell-based or functional assay. This is another data set of the same source.
Assay [30] deals with T1, recombinant human BAFF. Kind of assay: cell-based or functional assay. This is another data set of the same source.
In assay [31] the target is T2, recombinant human APRIL. Kind of assay: cell-based or functional assay. This is another data set of the same source.

One may read the koff as the first-order rate constant of dissociation. Usually kon stands for the rate constant with which the complex forms.

B1: Telitacicept (Fc fusion)
chain: SRVDQEERFPQGLWTGVAMRSCPEEQYWDPLLGTCMSCKTICNHQSQRTCAAFCRSLSCRKEQGKFYDHLLRDCISCASICGQHPKQCAYFCENKLRSPVNLPPEL
modifications: The drug is a disulfide-linked Fc-fusion homodimer. Only one TACI ECD arm is given, and the Fc is left out.
notes: Commercial product (sourced through Clinigen; RemeGen); also called Telitacicept/Tai'ai (RemeGen); WT TACI-Fc (Telitacicept); not shown: Fc part of the commercial drug (Clinigen/RemeGen)
For the molecule B1, the “IC50, TACI/Jurkat/NF-kB reporter” value with BAFF 60-mer is over 100 nM; in assay [1] it was 173 pM; in [2], 408 pM; in [3] it was 30.8 nM; with recombinant human BAFF [7], 14.5 nM; with recombinant mouse BAFF [8] it was 7.9 nM. Also, the “IC50, TACI/Jurkat/NF-kB reporter” value was 53.9 nM with recombinant human APRIL [9] and 15.5 nM in the assay with recombinant mouse APRIL [10]. In addition, the “IC50, Jurkat/NF-kB/TACI reporter” value with recombinant human BAFF [4] was 6850 pM; in the assay with recombinant human APRIL [5], 17.2 nM; in the assay with recombinant human BAFF [11], 9.17 nM and 7.3 nM. Further, in the assay with recombinant human BAFF [6], the Kd was determined as 0.491 nM. Further, the koff with recombinant human BAFF [6] was found to be 8.63e-05 s⁻¹. In addition, the kon with recombinant human BAFF [6] was 175000 M⁻¹ s⁻¹.

B2: WT TACI 13-118-Fc based on the published telitacicept sequence (Fc fusion)
chain: SRVDQEERFPQGLWTGVAMRSCPEEQYWDPLLGTCMSCKTICNHQSQRTCAAFCRSLSCRKEQGKFYDHLLRDCISCASICGQHPKQCAYFCENKLRSPVNLPPEL
Take B2: the “IC50, TACI/Jurkat/NF-kB reporter” value with recombinant human BAFF [7] stood at 19.6 nM; in the assay with recombinant mouse BAFF [8], 9.4 nM; in the assay with recombinant human APRIL [9], 73.1 nM; with recombinant mouse APRIL [10], 14.3 nM.

B3: 26 TACI CRD2-Fc (Fc fusion)
chain: SLSCRKEQGEYYDHLLRDCISCASICGQHPKQCADFCENKLRSGSGGGGSEPKSSDKTHTCPPCPAPEAEGAPSVFLFPPKPKDTLMISRTPEVTCVVVDVSHEDPEVKFNWYVDGVEVHNAKTKPREEQYNSTYRVVSVLTVLHQDWLNGKEYKCKVSNKALPAPIEKTISKAKGQPREPQVYTLPPSRDELTKNQVSLTCLVKGFYPSDIAVEWESNGQPENNYKTTPPVLDSDGSFFLYSKLTVDKSRWQQGNVFSCSVMHEALHNHYTQKSLSLSPG
notes: also called TACI (26)-Fc_73; 26 TACI-Fc
B3: the “IC50, Jurkat/NF-kB/TACI reporter” value worked out at 1270 nM with recombinant human BAFF [12]; 214 nM in the assay with recombinant human APRIL [13]; 1340 pM with recombinant human BAFF [4]; 1.76 nM with recombinant human APRIL [5]; 1220 nM with recombinant human BAFF [14]; 179 nM with recombinant human APRIL [15]. Also, the “IC50, Jurkat/NF-kB/TACI reporter” value is 2.8 nM in the assay with recombinant human BAFF [20]; 15.2 nM in the assay with recombinant mouse BAFF [21]; 3.8 nM with rat BAFF; 3.3 nM with cynomolgus monkey APRIL; 22.7 nM with rat APRIL; 3.4 nM with recombinant human APRIL [22]. Also, the “IC50, Jurkat/NF-kB/TACI reporter” value with cynomolgus monkey BAFF is 1.9 nM; in the assay with recombinant mouse APRIL [23], 24.5 nM; with recombinant human BAFF [11], 1.55 nM; with recombinant human APRIL [24], 9.21 nM. The “IC50 relative to TACI 30-110” value with recombinant human BAFF [12] worked out at 0.28 ratio; with recombinant human APRIL [13], 0.05 ratio. Besides, the “IC50, TACI/Jurkat/NF-kB reporter” value with BAFF 60-mer was 14.7 nM; in assay [1], under 16 pM; in [2], 103 pM; in [3] it was 3.36 nM; with recombinant human BAFF [7] it was 1.4 nM; with recombinant mouse BAFF [8], 1 nM. Moreover, the entries for the “IC50, TACI/Jurkat/NF-kB reporter” value with recombinant human APRIL [9] and with recombinant mouse APRIL [10] were 3.8 nM and 0.9 nM, respectively. Besides, the figures for the “IC50 relative to TACI 30-110-Fc” value in the assay with recombinant human BAFF [14] and with recombinant human APRIL [15] were 0.21 ratio and 0.05 ratio, respectively. In addition, the “IC50 (read off the curve), human BAFF, NF-κB luciferase reporter, TACI/Jurkat/NF-κB cells” value with recombinant human BAFF [16] fell in the range of 1 to 2 nM. Moreover, the Kd in the assay with recombinant human BAFF [6] was found to be 0.0593 nM; with recombinant human APRIL [25], 1 pM. Besides, the dissociation rate constant (koff) with recombinant human BAFF [6] worked out at 3.67e-05 s⁻¹; with recombinant human APRIL [27], 0.007 s⁻¹. For the same molecule, the values for the kon with recombinant human BAFF [6] and with recombinant human APRIL [17] were 619000 M⁻¹ s⁻¹ and 7e+09 M⁻¹ s⁻¹, respectively. In addition, in the assay with recombinant human BAFF [18], the “fold better neutralization than belimumab” value worked out at 3.4 fold. Further, the “fold better neutralization than the anti-APRIL mAb” value with recombinant human APRIL [19] is 5.7 fold. The “IC50 relative to WT TACI (68-110)-Fc (Δ WT)” value turned out to be 0.84 ratio with recombinant human BAFF [11] and 0.75 ratio with recombinant human APRIL [24]. For the same molecule, in the assay with recombinant human BAFF [26], the “IC50 (read off the curve), human BAFF, NF-κB luciferase reporter, Jurkat/NF-κB/TACI cells” value was about 1000 pM. Also, in the assay with recombinant human BAFF [28], the “fold better affinity than telitacicept” value is about 8 fold. Also, in the assay with recombinant mouse BAFF [29], the “IC50 (read off the curve), mouse BAFF, NF-κB luciferase reporter, Jurkat/NF-κB/TACI cells” value is about 1000 pM.

B4: Belimumab (antibody, V domains shown)
VH: QVQLQQSGAEVKKPGSSVRVSCKASGGTFNNNAINWVRQAPGQGLEWMGGIIPMFGTAKYSQNFQGRVAITADESTGTASMELSSLRSEDTAVYYCARSRDLLLFPHHALSPWGRGTMVTVSS
VL: SSELTQDPAVSVALGQTVRVTCQGDSLRSYYASWYQQKPGQAPVLVIYGKNNRPSGIPDRFSGSSSGNTASLTITGAQAEDEADYYCSSRDSSGNHWVFGGGTELTVLG
With B4, the “IC50, TACI/Jurkat/NF-kB reporter” value in assay [2] was found to be 90 pM; in assay [3], 8.52 nM; with recombinant human BAFF [7] it was 4.8 nM. Besides, the “IC50, Jurkat/NF-kB/TACI reporter” value with recombinant human BAFF [4] amounted to 2260 pM; in the assay with recombinant human BAFF [14], 2500 nM; in the assay with recombinant human BAFF [11], 2.19 nM. Further, in the assay with recombinant human BAFF [14], the “IC50 relative to TACI 30-110-Fc” value is 0.43 ratio. Further, the “IC50 relative to WT TACI (68-110)-Fc (Δ WT)” value in the assay with recombinant human BAFF [11] is 1.18 ratio.

B5: 7 TACI CRD1/CRD2-Fc (Fc fusion)
variant TACI CRD1/CRD2 - linker - Fc chain: VAMRSCPEEQYWDPLLGTCMSCKTICNHQSQRTCAAFCRSLSCRKEQGKFYDHLLRDCISCASICGQHPKQCDYFCENKLRSGSGGGGSEPKSSDKTHTCPPCPAPEAEGAPSVFLFPPKPKDTLMISRTPEVTCVVVDVSHEDPEVKFNWYVDGVEVHNAKTKPREEQYNSTYRVVSVLTVLHQDWLNGKEYKCKVSNKALPAPIEKTISKAKGQPREPQVYTLPPSRDELTKNQVSLTCLVKGFYPSDIAVEWESNGQPENNYKTTPPVLDSDGSFFLYSKLTVDKSRWQQGNVFSCSVMHEALHNHYTQKSLSLSPG
Regarding B5, the “IC50 (read off the curve), human BAFF, NF-κB luciferase reporter, Jurkat/TACI/NF-κB cells” value in the assay with recombinant human BAFF [30] is about 2000 pM. Also, in the assay with recombinant human APRIL [31], the “IC50 (read off the curve), human APRIL, NF-κB luciferase reporter, Jurkat/TACI/NF-κB cells” value is about 3000 pM.
